# Assay results from article PMC3443672, “The solution structure of the prototype foamy virus RNase H domain indicates an important role of the basic loop in substrate binding”.
# B1: 10/10-mer RNA/5'-DY647-DNA (DNA:RNA)
# RNA: GCGACACCUG
# DNA: CAGGTGTCGC
# Target: PFV RNase H wt (prototype foamy virus, UniProt P14350 591-751)
# Experiment: fluorescence anisotropy; 25 nM substrate; Fluorescence anisotropy: 25 nM substrate, excitation 652 nm, emission 673 nm; buffer, salt, pH and temperature not given (as described in ref 5)
# Settings: protein: recombinant; label: DY647 at 5' end of DNA strand; blunt
binder,measurement,value
B1,Kd,23 ± 3 µM
